US20220195067A1 (LAMKAP BIO BETA, published 2022)
Changes are numbered by the printed parent chain.

T1: recombinant human CEACAM5 Extra Cellular Domain (ECD) soluble protein (human, UniProt P06731 35-685, biotinylated in the competition ELISA of Example 4)
T1 construct: extracellular domain; also called rec. hCEACAM5; recombinant soluble human CEACAM5; not shown: C-terminal Avitag and hexa-histidine tag, or a human Fc or a mouse Fc region; which construct stood in each assay is not
T1 sequence (looked up): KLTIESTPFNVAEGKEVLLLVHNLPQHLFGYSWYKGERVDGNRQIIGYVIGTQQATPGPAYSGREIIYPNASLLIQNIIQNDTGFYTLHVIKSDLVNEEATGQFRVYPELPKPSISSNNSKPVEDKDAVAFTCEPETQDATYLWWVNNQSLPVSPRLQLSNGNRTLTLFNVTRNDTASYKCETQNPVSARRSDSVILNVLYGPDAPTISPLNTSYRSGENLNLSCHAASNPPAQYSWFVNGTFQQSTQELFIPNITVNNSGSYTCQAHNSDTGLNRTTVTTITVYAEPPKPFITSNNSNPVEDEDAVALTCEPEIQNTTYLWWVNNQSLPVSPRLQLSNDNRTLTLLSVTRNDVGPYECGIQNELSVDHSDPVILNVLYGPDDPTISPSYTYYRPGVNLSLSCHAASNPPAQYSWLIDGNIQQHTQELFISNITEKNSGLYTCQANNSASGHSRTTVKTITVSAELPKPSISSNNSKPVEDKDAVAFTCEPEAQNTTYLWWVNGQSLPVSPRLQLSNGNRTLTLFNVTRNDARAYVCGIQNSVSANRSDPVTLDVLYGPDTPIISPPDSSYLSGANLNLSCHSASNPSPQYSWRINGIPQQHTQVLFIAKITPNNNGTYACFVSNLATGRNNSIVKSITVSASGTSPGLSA

T2: human CEACAM5 on CEACAM5-expressing cancer cell lines (human, UniProt P06731 35-685)
T2 construct: whole, on cells; also called CEACAM5 on SK-CO-1, MKN-45, HPAF-II, SNU-C1, Ls174T, LoVo cells
T2 sequence (looked up): T1 sequence (looked up)

T3: his-tagged recombinant huCEACAM3 (R&D Systems, #9868-CM) (human, UniProt P40198 35-155)
T3 construct: Bought reagent; also called rec. hCEACAM3; recombinant soluble human CEACAM3; not shown: His tag
T3 sequence (looked up): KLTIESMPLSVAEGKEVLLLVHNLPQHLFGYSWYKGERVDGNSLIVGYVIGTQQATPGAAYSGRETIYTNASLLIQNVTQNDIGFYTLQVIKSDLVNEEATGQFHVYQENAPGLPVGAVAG

B1: K2AC84 (bispecific antibody, human IgG1, kappa, lambda)
heavy: not shown
light 1: QSVLTQPPSVSAAPGQKVTISCSGSSSNIGIGLVSWYQQLPGTAPKLLIYNVNTRPSGIPDRFSGSKSGTSATLGITGLQTGDEADYYCGTWDFSYRVDFGGGTKLTVLGQPKAAPSVTLFPPSSEELQANKATLVCLISDFYPGAVTVAWKADSSPVKAGVETTTPSKQSNNKYAASSYLSLTPEQWKSHRSYSCQVTHEGSTVEKTVAPTECS
light 2: not shown
notes: Kappa-lambda body; also called CD47xCEACAM5 bispecific antibody K2AC84; AC84 (CEACAM5 arm)
B2: K2AC22 (bispecific antibody, human IgG1, kappa, lambda)
heavy: not shown
light 1: B1 light 1 with G30A, I31N, L33I, N51F, V52D, T54L, R97G, V98I, D99V
light 2: not shown
notes: Kappa-lambda body, human IgG1, one arm for CEACAM5 and one for CD47; comparison antibody from WO2019234576; also called state of the art bispecific CEAxCD47 antibody K2AC22; CD47xCEACAM5 bispecific antibody K2AC22
B3: K2AC100 (bispecific antibody, human IgG1, kappa, lambda)
heavy: not shown
light 1: B1 light 1 with I31Y, V52G, T54I
light 2: not shown
notes: Kappa-lambda body; also called CD47xCEACAM5 bispecific antibody K2AC100; AC100 (CEACAM5 arm)

The binders below were run against T1, recombinant human CEACAM5 Extra … (assay: BLI (Octet), antibody on Protein A biosensor, soluble CEACAM5 ECD as analyte).
Description: (§1) The affinity of the anti-human CEACAM5 arm of the CD47×CEACAM5 bispecific antibodies of the invention for recombinant soluble human CEACAM5 was determined using the Bio-Layer Interferometry (BLI) technology. An OctetRED96 instrument and Protein A biosensors were used (Sartorius). The measurement was performed at 30° C. After hydration, pre-conditioning and a baseline step in Kinetic buffer (PBS, 0.002% Tween 20, 0.01% BSA, Kathon; Sartorius), biosensors were loaded for 5 min with the κλ body at 0.5 μg/mL in Kinetic buffer. Then, biosensors were dipped into a serial dilution of recombinant human CEACAM5 Extra Cellular Domain (ECD) soluble protein (produced in house), starting at 50 nM with a 2× dilution factor. The association and dissociation phases were monitored for 600 seconds each. Biosensors were regenerated using 10 mM glycine pH 1.7. A standard acquisition rate was applied (5.0 Hz, averaging by 20). Curves were processed with a reference well subtraction, a Y alignment on the baseline, without interstep correction. The affinity was measured applying a 1:1 global fitting model on the full association and dissociation steps. The binding affinity (KD) of the bispecific antibodies of the invention to recombinant human CD47 was determined by the same experimental procedure.

Binder | Kd [nM]
B1 | 2.63
B2 | 120
B3 | 4.8

What follows are binders tested against T2, human CEACAM5 on CEACAM5-expressing … (assay: flow cytometry on MKN-45 cells (carry CEACAM5 and CD47), PE anti-human IgG Fc).
Description: (§2) The binding of CD47×CEACAM5 bispecific antibodies was tested on CEACAM5-expressing human gastric adenocarcinoma cells (e.g. MKN-45), on CEACAM5-expressing human colorectal cancer cells (SK-CO-1, SNU-C1, Ls174T, and LoVo), and on CEACAM5-expressing pancreatic adenocarcinoma cells (HPAF-II).
(§3) Cells were harvested, counted, checked for viability and resuspended at 3×10⁶ cells/ml in FACS buffer (PBS 2% BSA, 0.1% NaN3). 100 μl of the cell suspension was distributed in V-bottom 96-well plates (3×10⁵ cells/well). The supernatant was removed by centrifugation 3 minutes at 4° C., 1300 rpm. Increasing concentrations of the antibody according to the invention were then added into the wells and incubated for 15 minutes at 4° C. Cells were washed twice with cold FACS buffer and re-incubated for further 15 minutes at 4° C. with the PE (R-phycoerythrin)-conjugated mouse anti-human IgG Fc secondary antibody (SouthernBiotech, pre-diluted 1:100 in FACS buffer). Cells were washed twice with cold FACS buffer and resuspended in 300 μl FACS buffer with 1:15000-diluted SytoxBlue (Life Technologies). Fluorescence, specifically mean fluorescence […] (MFI), was determined using a Cytoflex […] flow cytometer. Binding curves and […] and Emax values were obtained and calculated using GraphPad Prism7 software.

Binder | EC50 [nM] | Emax (MFI)
B1 | 7.3 | 1.52e+06
B2 | 21.3 | 1.16e+06
B3 | 8.7 | 1.3e+06

These binders were tested against T2, human CEACAM5 on CEACAM5-expressing … (assay: flow cytometry on HPAF-II cells (carry CEACAM5 and CD47), PE anti-human IgG Fc).
Description: as §2, §3

Binder | EC50 [nM] | Emax (MFI)
B1 | 8.7 | 1.27e+06
B2 | 19.3 | 670000
B3 | 8 | 1.1e+06

These binders were tested against T2, human CEACAM5 on CEACAM5-expressing … (assay: flow cytometry on Ls174T cells (carry CEACAM5 and CD47), PE anti-human IgG Fc).
Description: as §2, §3

Binder | EC50 [nM] | Emax (MFI)
B1 | 5.6 | 89000
B2 | 28 | 73000
B3 | 4.5 | 70000

What follows are binders tested against T3, his-tagged recombinant huCEACAM3 (R&D …) (assay: BLI (Octet), KD on CEACAM3 against KD on CEACAM5).
Description: as §1
The affinity of the anti-human CEACAM5 arms of the CD47×CEACAM5 bispecific antibodies of the invention for recombinant soluble human CEACAM3 was determined using the Bio-Layer Interferometry (BLI) technology and an OctetRED96 instrument. HIS1K biosensors (Sartorius), loaded with an anti-His tag antibody, were used to capture his-tagged recombinant huCEACAM3 (R&D Systems, #9868-CM). The measurement was performed at 30° C. After hydration, pre-conditioning and a baseline step in Kinetic buffer (PBS, 0.002% Tween 20, 0.01% BSA, Kathon; Sartorius), biosensors were loaded for 5 min with the recombinant huCEACAM3 at 5 μg/mL in Kinetic buffer. […] The association and dissociation phases were monitored for 60 seconds and 120 seconds respectively. […]

Binder | Fold difference hCEACAM3/hCEACAM5 (ratio of KD) [fold]
B1 | 137
B2 | 83
B3 | 146
